Measured values from article PMC3927129.

What was measured:
[1] = target: membranous subcomplex VO (ICL12) of the Thermus thermophilus rotary ATPase (Thermus thermophilus) (UniProt P74902); experiment: native MS
[2] = target: subunit L of the Thermus thermophilus rotary ATPase (L12 membrane ring) (Thermus thermophilus); experiment: native MS

Substance | stoichiometry N [1] | stoichiometry N [2]
peripheral stalk (subunits E and G) of the Thermus thermophilus rotary ATPase (from UniProt P74901 1-188) (complex) | 2 | –
subunit L of the Thermus thermophilus rotary ATPase (L12 membrane ring) (natural protein) | – | 12
